Article PMC8809985, “Preparation and characterization of a fully human monoclonal antibody specific for human tumor necrosis factor alpha” (Bioengineered, 2021)
Several values for one entry are separate records, joined by “and”; a condition that tells them apart may be missing. Identical values can stand only once.

Target: recombinant human tumor necrosis factor alpha (Homo sapiens, UniProt P01375)
Assay: cell-based or functional assay

Sequence of recombinant human tumor necrosis factor alpha (P01375 77-233): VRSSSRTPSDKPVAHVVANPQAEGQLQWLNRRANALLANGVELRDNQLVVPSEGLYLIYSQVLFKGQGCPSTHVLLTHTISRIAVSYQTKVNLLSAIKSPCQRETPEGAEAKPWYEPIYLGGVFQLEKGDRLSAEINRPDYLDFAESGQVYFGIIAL

B1: Haidalimumab (antibody, V domains shown)
VH: EVQLVESGGGLVQPGGSLRLSCAASGFPFSNHWMNWVRQAPGKGLEWVGEIRSKSMNSATHYAESVKGRFTISRDDSKNSLYLQMNSLKTEDTAVYYCARNYYGSTYDHWGQGTLVTVSS
VL: EIVLTQSPDFQSVTPKEKVTITCRASQFVGYSIHWYQQKPDQSPKLLIKYASESRSGVPSRFSGSGSGTDFTLTINSLEAEDAATYYCQQSHSWHFTFGQGTKLEIK
EC50 of neutralisation of the cytotoxicity of rhTNFα (1 ng/mL, with actinomycin D 2.5 μg/mL) on L929 cells, MTT; one of three antibody batches: 0.0195 µg/mL and 0.018 µg/mL and 0.0158 µg/mL
